According to patent US20130064837A1 (University of California, published 2013):

Assays:
human integrin β8 = target: T1, human integrin β8 (human, UniProt P26012 43-769); assay: antibody binding, cell surface staining, flow cytometry
T1 construct: whole, on cells; also called ITGB8; H ITGB8
From the text: (§1) Chimeric integrin β8 constructs, which swapped mouse sequences into human ITGB8 were used to localize the 37E1B5 binding epitope. The epitope was localized by antibody binding, cell surface staining, and detection by flow cytometry. The 37E1B5 epitope is encompassed within amino acids 74-180 of human integrin β8. 37E1B5 binds to human, but not to mouse β8. Therefore, at least one of the 9 non-conservative amino acid differences or 7 minor amino acid differences (indicated by + in the middle line of the sequence) are included in the binding epitope. These domains reflect portions of what are known in the field as the Psi, hybrid and the alpha1 helix of the Beta-I domain of the integrin β8 subunit, and are found on the surface of the molecule.

mouse integrin β8 = target: T2, mouse integrin β8 (mouse, UniProt Q0VBD0 22-767, limits assumed); assay: antibody binding, cell surface staining, flow cytometry (mouse/human chimeric β8 constructs)
T2 construct: also called itgb8; M itgb8
T2 sequence (looked up): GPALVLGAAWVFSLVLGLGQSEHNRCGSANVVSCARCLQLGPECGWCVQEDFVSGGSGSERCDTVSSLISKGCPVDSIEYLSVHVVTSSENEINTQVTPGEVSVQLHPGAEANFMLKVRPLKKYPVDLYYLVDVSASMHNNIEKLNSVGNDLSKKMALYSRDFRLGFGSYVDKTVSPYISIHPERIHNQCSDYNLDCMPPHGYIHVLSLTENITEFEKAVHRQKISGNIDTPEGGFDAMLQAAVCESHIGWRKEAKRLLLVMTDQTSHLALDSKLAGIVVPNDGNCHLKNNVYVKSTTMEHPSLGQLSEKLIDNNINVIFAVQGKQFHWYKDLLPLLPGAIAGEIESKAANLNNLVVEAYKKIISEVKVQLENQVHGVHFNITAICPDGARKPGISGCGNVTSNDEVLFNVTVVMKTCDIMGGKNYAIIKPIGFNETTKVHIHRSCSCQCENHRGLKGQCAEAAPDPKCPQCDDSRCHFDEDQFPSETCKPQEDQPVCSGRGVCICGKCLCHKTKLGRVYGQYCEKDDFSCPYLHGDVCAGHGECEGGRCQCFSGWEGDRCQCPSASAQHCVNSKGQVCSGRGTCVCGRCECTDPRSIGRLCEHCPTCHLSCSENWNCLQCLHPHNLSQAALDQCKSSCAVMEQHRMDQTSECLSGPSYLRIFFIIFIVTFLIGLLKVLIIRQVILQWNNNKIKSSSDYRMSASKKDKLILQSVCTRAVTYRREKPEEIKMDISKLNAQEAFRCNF
From the text: as §1

human integrin αvβ8 = human integrin αvβ8 (human, UniProt P06756 31-1048; P26012 43-769); assay: cell staining and flow cytometry on primary human articular chondrocytes
Description: Adult articular cartilage was harvested from the joint space of knee from a patient undergoing elective repair of a knee for chronic osteoarthritis. Primary chondrocytes were grown to 70% confluence and the integrin receptor expression determined by cell staining and flow cytometry. The antibodies used were anti-β8 (37E1B5), and anti-β6 (E7P6). […] Primary chondrocytes were co-cultured with TMLC TGF-β reporter cells (Annes et al. (2004) J. Cell Biol. 165:723) in a TGF-β bioassay in the presence or absence of anti-β8 (37E1B5) or neutralizing anti-β6. Anti-β8 produced a robust blockade of TGF-β activation while anti-β6 produced no such effect.

T1 sequence (P26012 43-769): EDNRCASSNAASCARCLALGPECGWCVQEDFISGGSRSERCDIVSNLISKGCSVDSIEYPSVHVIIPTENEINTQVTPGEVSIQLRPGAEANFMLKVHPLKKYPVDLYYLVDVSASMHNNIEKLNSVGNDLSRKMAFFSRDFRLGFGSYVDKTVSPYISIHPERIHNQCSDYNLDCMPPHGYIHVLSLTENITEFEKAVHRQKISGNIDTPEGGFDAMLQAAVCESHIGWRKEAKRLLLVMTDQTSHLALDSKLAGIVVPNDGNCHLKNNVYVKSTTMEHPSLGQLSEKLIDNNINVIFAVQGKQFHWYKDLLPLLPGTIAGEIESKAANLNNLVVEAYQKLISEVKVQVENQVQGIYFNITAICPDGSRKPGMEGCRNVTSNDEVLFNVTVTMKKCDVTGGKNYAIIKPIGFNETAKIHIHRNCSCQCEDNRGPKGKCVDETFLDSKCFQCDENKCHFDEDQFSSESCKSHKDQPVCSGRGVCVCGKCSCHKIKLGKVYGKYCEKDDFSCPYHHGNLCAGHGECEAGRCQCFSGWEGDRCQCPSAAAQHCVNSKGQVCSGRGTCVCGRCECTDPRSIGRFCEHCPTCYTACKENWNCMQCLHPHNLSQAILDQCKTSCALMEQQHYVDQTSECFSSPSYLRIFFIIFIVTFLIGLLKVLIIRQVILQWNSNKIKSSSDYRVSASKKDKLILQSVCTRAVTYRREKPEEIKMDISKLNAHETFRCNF
human integrin αvβ8, sequence (P06756 31-1048, chain 1 of 2): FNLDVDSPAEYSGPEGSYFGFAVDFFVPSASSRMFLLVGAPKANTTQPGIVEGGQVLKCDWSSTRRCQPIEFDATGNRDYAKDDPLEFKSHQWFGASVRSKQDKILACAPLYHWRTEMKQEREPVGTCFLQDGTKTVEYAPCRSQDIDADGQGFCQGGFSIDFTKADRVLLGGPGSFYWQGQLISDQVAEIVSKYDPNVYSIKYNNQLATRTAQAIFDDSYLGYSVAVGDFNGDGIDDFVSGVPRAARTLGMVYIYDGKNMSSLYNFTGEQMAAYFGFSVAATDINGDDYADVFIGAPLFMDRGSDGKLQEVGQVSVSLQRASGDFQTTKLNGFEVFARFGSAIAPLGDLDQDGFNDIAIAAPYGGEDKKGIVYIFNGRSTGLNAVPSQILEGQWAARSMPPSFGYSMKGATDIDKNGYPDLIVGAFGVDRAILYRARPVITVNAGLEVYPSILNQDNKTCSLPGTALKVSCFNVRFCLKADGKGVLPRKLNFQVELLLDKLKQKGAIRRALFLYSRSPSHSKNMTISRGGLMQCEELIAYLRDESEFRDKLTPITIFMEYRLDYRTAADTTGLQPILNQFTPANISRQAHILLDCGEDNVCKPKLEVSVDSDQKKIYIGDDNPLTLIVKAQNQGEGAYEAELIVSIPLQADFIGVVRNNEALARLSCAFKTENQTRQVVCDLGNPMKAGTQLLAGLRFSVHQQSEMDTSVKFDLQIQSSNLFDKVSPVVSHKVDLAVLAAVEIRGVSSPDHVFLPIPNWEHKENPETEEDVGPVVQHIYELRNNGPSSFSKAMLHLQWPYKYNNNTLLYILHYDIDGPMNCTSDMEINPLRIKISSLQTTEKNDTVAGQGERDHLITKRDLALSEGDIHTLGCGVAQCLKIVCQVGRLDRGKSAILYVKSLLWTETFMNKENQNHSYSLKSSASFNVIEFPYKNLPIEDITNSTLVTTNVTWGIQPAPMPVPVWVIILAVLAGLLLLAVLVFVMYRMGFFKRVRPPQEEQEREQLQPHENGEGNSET
human integrin αvβ8, sequence (P26012 43-769, chain 2 of 2): as the sequence (P26012 43-769) above

binding result (human integrin β8): binds
binding result (mouse integrin β8): no binding
binding result (human integrin αvβ8): binds
B1: 37E1B5 (antibody, V domains shown)
VH: EVQLVESGGGLVQPGGSLNLSCAVSGFVFSRYWMSWVRQAPGKGLEWIGEINPDSSTINYTSSLKDKFIISRDNAKNTLYLQMNKVRSEDTALYYCACLITTEDYWGQGTSVTVSS
VL: QIVLTQSPSSMYASLGERVTIPCKASQDINSYLSWFQQKPGKSPKTLIYYANRLVDGVPSRFSGSGSGQDYSLTISSLEYEDMGIYYCLQYDEFPYTFGGGTKLEIK
notes: Three versions were made in CHO cells: mouse IgG1, mouse IgG2a and partially humanized IgG1; also called 37E1B5 antibody; anti-β8 (37E1B5)
